The values that follow come from patent publication US20240100176A1 (Eli Lilly, published 2024).

The target in assay [1] is T1, hexahistidine-tagged human IL-4Rα extracellular domain (human, UniProt P24394 26-232).
T1 construct: In the MSD assay the plate coat is the His-tagged ECD; also called human IL-4Rα ECD; Wild type receptor; not shown: hexahistidine tag
T1 sequence: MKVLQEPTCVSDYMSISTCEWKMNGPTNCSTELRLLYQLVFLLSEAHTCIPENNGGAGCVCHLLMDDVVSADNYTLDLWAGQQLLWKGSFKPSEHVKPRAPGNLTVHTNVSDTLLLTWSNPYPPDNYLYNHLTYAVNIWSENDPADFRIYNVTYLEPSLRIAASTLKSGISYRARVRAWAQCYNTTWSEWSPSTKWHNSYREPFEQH
Put plainly: competition MSD ELISA (solution equilibrium, 37 °C), apparent KD, mean of 3 experiments. The method, then:
Example 3a. […] A 96-well multi-array plate (Meso Scale Diagnostics, Cat. #L15XA-3) was coated at 4° C. overnight with 0.5 μg/mL hexahistidine-tagged human or cynomolgus monkey IL-4Rα ECD in phosphate buffered saline (PBS). Following coating, plates were washed 10 times with 200 μL PBST (PBS with 0.05% Tween® 20) and blocked with 300 μL/well of PBS casein blocking buffer (Pierce, Cat. #37528) at 37° C. for 1 hour. Plates were then washed 10 times as above, and 50 μL of the preincubated antibody:IL-4Rα dilution series was transferred to the wells and incubated at 37° C. with 300 rpm shaking for […]. Plates were washed 10 times with PBST, 50 μL of 1 μg/mL anti-human antibody sulfo-tag 20 (Meso Scale Diagnostics, Cat. #R32AJ-1) was added to the plates for the assay of Table 7a, and anti-Human NHP Kappa Light chain SULFO-TAG 20 (Meso Scale Diagnostics, Cat #D20TF-6) was added to the plates for the assay of Table 7b, and plates were incubated at 37° C. with 300 rpm shaking for 30 minutes. Plates were washed 10 times with PBST, 150 μL/well of 1× Read Buffer T was added to the wells and analyzed on a SECTOR® Imager 6000 (Meso Scale Diagnostics) 15 min after buffer addition. The apparent KD is determined by fitting a sigmoidal curve to the electrochemiluminescence (ECL) response vs. log (soluble IL-4Rα concentration) using GraphPad Prism 9. Data is graphed with normalized ECL values.
For orientation: In an ELISA, binding on a coated surface is turned into a signal by an enzyme label.

Assay [2] deals with T2, human IL-4Rα on cells (human PBMC B cells and CD4+ T cells, Daudi cells, HEK-Blue IL-4/IL-13 cells, myeloid … (human, UniProt P24394 26-825)).
T2 sequence: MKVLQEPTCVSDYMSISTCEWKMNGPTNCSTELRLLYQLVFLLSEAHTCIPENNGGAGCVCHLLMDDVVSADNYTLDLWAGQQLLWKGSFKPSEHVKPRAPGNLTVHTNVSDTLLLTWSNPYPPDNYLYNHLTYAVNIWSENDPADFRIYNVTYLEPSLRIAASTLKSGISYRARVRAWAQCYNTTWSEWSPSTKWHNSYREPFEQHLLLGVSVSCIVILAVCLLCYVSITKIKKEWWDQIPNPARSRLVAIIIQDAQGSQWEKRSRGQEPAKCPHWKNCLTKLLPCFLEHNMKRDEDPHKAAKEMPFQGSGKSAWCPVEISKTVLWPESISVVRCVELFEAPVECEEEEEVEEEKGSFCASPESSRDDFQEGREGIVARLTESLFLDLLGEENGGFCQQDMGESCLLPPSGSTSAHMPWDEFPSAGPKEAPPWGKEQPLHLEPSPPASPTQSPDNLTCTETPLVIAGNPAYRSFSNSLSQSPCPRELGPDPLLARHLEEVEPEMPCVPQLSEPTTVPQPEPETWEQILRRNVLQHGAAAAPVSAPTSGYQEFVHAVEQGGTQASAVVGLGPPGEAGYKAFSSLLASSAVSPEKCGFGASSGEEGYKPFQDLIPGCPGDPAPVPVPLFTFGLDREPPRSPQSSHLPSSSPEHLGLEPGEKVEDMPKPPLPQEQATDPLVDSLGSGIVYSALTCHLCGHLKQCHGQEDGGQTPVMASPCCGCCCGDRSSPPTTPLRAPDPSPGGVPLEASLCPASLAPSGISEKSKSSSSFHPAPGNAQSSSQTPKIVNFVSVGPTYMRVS
Put plainly: cell-based or functional assay.

Assay [3] deals with T3, hexahistidine tagged human IL-4Rα ECD T31R (human, UniProt P24394 26-232).
T3 construct: not shown: hexahistidine tag
Put plainly: capture ELISA: Ab1 on anti-human IgG Fc, His-tagged receptor at 0.04 µg/mL, anti-His HRP. An excerpt:
Example 2d. […] Briefly, thirty surface amino acid residue substitutions were introduced individually into hexahistidine tagged human IL-4Rα extra cellular domain (ECD) as follows: K2D, E6R, K22D, P26R, T31R, F41A, L42G, L43G, E45R, E52R, G56R, D66R, A71R, Q82G, K87D, E94R, H107A, D108R, P124R, D125R, D143R, R148D, L155R, R160D, S164R, S168R, Q181R, P192R, K195D, or H197G. Each mutant protein having a single amino acid residue substitution as described above was transiently expressed in CHO cells and purified using standard immobilized metal affinity chromatography techniques. […] The plates were then washed 3 times with PBST and the exemplified human IL-4Rα antibody was added to the wells at a final concentration of 1 μg/mL in PBS-casein and incubated for 1 hour at room temperature. The plates were washed 3 times with PBST, the IL-4Rα mutant proteins were serially diluted 5-fold from 1 μg/mL for 3 points. in PBS-casein and added to the plate at 50 μL/well and incubated for 1 hour at room temperature. The plates were washed 3 times with PBST and a 1000-fold dilution of anti-histidine tag antibody HRP conjugate (R&D Systems, Cat. #MAB050H) in PBS-casein was added and incubated for 45 minutes at room temperature. The plates were washed 3 times, TMB substrate (Pierce, Cat. #34028) was added per manufacturer instructions, the reaction was quenched with H₂SO₄, and absorbance was read at 450 nm on an ELISA plate reader.

Assay [4] addresses T2, human IL-4Rα on cells (human PBMC B …). Put plainly: cell-based or functional assay. The source holds these as a separate data set.
Assay [5] has the same target. Put plainly: cell-based or functional assay. The source holds these as a separate data set.
For assay [6] the target is unchanged. Put plainly: cell-based or functional assay. The source holds these as a separate data set.

T3 sequence (P24394 26-232 T56R): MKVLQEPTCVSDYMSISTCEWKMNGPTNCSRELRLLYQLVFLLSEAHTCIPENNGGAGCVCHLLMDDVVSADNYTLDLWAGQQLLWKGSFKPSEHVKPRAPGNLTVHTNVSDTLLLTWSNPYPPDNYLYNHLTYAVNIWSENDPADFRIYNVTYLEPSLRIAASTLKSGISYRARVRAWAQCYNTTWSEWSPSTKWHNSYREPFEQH

B1: anti-human IL-4Rα antibody Ab1 (antibody, human IgG4 S228P, kappa)
heavy: QVQLVESGGGLVQPGGSLRLSCVASGFTFSHSSMNWVRQAPGKGLEWVSYISRATGAVYYADSVKGRFTISRDNAKNSLYLQMNSLRDEDTAVYYCAREPVFDYWGQGTLVTVSSASTKGPCVFPLAPCSRSTSESTAALGCLVKDYFPEPVTVSWNSGALTSGVHTFPAVLQSSGLYSLSSVVTVPSSSLGTKTYTCNVDHKPSNTKVDKRVESKYGPPCPPCPAPEFLGGPSVFLFPPKPKDTLMISRTPEVTCVVVDVSQEDPEVKFNWYVDGVEVHNAKTKPREEQFNSTYRVVSVLTVLHQDWLNGKEYKCKVSNKGLPSSIEKTISKAKGQPREPQVYTLPPSREEMTKNQVSLTCLVKGFYPSDICVEWESNGQPENNYKTTPPVLDSDGSFFLYSRLTVDKSRWQQGNVFSCSVMHEALHNHYTQKSLSLSLG
light: DIQMTQSPSAMSASVGDRVTITCRASQDISNYLAWFQQKPGKVPTRLIYAASSLQSGVPSRFSGSGSGTEFTLTISSLQPEDFATYYCLQWSSYPRTFGQGTKVEIKRTVAAPSVFIFPPSDEQLKSGTASVVCLLNNFYPREAKVQWKVDNALQSGNSQESVTEQDSKDSTYSLSSTLTLSKADYEKHKVYACEVTHQGLSSPVTKSFNRGEC
notes: human kappa light chain; also called anti-human IL-4Rα Ab1; unconjugated Ab1
Regarding B1, the Kd in assay [1] amounted to 0.0312 nM. In assay [2], the “Inhibition of IL-4 induced STAT6 phosphorylation, B cells, IC50” value was 0.019 µg/mL and the “Inhibition of IL-4 induced STAT6 phosphorylation, CD4+ T cells, IC50” value worked out at 0.017 µg/mL. The “ELISA (OD450)” value in assay [3] is 0.994 OD450. Besides, the “Inhibition of IL-13 induced STAT6 phosphorylation in B cells, IC50” value in assay [4] was 0.03 µg/mL. Also, the “Inhibition of IL-4 induced CD23 Expression on myeloid cells, IC50” value in assay [5] is 8.27 nM.

B2: anti-human IL-4Rα Ab1 GC conjugate of Example 1b (n=4) (antibody, human IgG4 S228P, kappa)
heavy: B1 heavy
light: B1 light
modifications: glucocorticoid receptor agonist payload-linker (GC-L, Preparation 8) conjugated to the engineered cysteines at the 124 and 378 position of the heavy chain (EU numbering); n is 4 (average DAR 4.17 by RP-HPLC, 3.85 by TOF MS)
For B2, the Kd in assay [1] came out at 0.0247 nM. In addition, in assay [2], the “Inhibition of IL-4 induced STAT6 phosphorylation, B cells, IC50” value was found to be 0.046 µg/mL and the “Inhibition of IL-4 induced STAT6 phosphorylation, CD4+ T cells, IC50” value worked out at 0.041 µg/mL. In assay [6], the “Inhibition of IL-4 induced B cell proliferation, IC50” value was 1.41 nM. In assay [4], the “Inhibition of IL-13 induced STAT6 phosphorylation in B cells, IC50” value came out at 0.064 µg/mL. Further, the “Inhibition of IL-4 induced CD23 Expression on myeloid cells, IC50” value in assay [5] was found to be 10.8 nM.
